Test results from US6602687B1, “DNA encoding human ciliary neurotrophic factor and method for producing the protein encoded thereby” (Regeneron Pharmaceuticals, Inc., priority 1989, dated 2003).

B1: CNTF purified from rat sciatic nerve: native CNTF protein purified from rat sciatic nerve (protein, UniProt P20294 1-200, looked up)
Ciliary neurotrophic factor: MAFAEQTPLTLHRRDLCSRSIWLARKIRSDLTALMESYVKHQGLNKNINLDSVDGVPVASTDRWSEMTEAERLQENLQAYRTFQGMLTKLLEDQRVHFTPTEGDFHQAIHTLMLQVSAFAYQLEELMVLLEQKIPENEADGMPATVGDGGLFEKKLWGLKVLQELSQWTVRSIHDLRVISSHQMGISALESHYGAKDKQM
B2: EGF: EGF (mouse) (protein, UniProt P01132 29-1217, looked up)
Pro-epidermal growth factor: WQTGNCQPGPLERSERSGTCAGPAPFLVFSQGKSISRIDPDGTNHQQLVVDAGISADMDIHYKKERLYWVDVERQVLLRVFLNGTGLEKVCNVERKVSGLAIDWIDDEVLWVDQQNGVITVTDMTGKNSRVLLSSLKHPSNIAVDPIERLMFWSSEVTGSLHRAHLKGVDVKTLLETGGISVLTLDVLDKRLFWVQDSGEGSHAYIHSCDYEGGSVRLIRHQARHSLSSMAFFGDRIFYSVLKSKAIWIANKHTGKDTVRINLHPSFVTPGKLMVVHPRAQPRTEDAAKDPDPELLKQRGRPCRFGLCERDPKSHSSACAEGYTLSRDRKYCEDVNECATQNHGCTLGCENTPGSYHCTCPTGFVLLPDGKQCHELVSCPGNVSKCSHGCVLTSDGPRCICPAGSVLGRDGKTCTGCSSPDNGGCSQICLPLRPGSWECDCFPGYDLQSDRKSCAASGPQPLLLFANSQDIRHMHFDGTDYKVLLSRQMGMVFALDYDPVESKIYFAQTALKWIERANMDGSQRERLITEGVDTLEGLALDWIGRRIYWTDSGKSVVGGSDLSGKHHRIIIQERISRPRGIAVHPRARRLFWTDVGMSPRIESASLQGSDRVLIASSNLLEPSGITIDYLTDTLYWCDTKRSVIEMANLDGSKRRRLIQNDVGHPFSLAVFEDHLWVSDWAIPSVIRVNKRTGQNRVRLQGSMLKPSSLVVVHPLAKPGADPCLYRNGGCEHICQESLGTARCLCREGFVKAWDGKMCLPQDYPILSGENADLSKEVTSLSNSTQAEVPDDDGTESSTLVAEIMVSGMNYEDDCGPGGCGSHARCVSDGETAECQCLKGFARDGNLCSDIDECVLARSDCPSTSSRCINTEGGYVCRCSEGYEGDGISCFDIDECQRGAHNCGENAACTNTEGGYNCTCAGRPSSPGLSCPDSTAPSLLGEDGHHLDRNSYPGCPSSYDGYCLNGGVCMHIESLDSYTCNCVIGYSGDRCQTRDLRWWELRHAGYGQKHDIMVVAVCMVALVLLLVLGMWGTYYYRTRKQLSNPPKNPCDEPSGSVSSSGPNSSSGAAVASCPQPWFVVLEKHQDPKNGSLPADGTNGAVVDAGLSPSLQLGSVHLTSWRQKPHIDGMGTGQSCWIPPSSDRGPQEIEGNSHLPSYRPVGPEKLHSLQSANGSCHERAPDLPRQTEPVQ
modifications: Pro-epidermal growth factor
B3: pRPN108: hCNTF with alanine in place of cysteine at amino acid 17, encoded in plasmid pRPN108 (protein, UniProt P26441 1-200, looked up, variant C17A)
Ciliary neurotrophic factor: MAFTEHSPLTPHRRDLASRSIWLARKIRSDLTALTESYVKHQGLNKNINLDSADGMPVASTDQWSELTEAERLQENLQAYRTFHVLLARLLEDQQVHFTPTEGDFHQAIHTLLLQVAAFAYQIEELMILLEYKIPRNEADGMPINVGDGGLFEKKLWGLKVLQELSQWTVRSIHDLRFISSHQTGIPARGSHYIANNKKM
B4: bNGF: bNGF (mouse) (protein, UniProt P01139 122-241, looked up)
Beta-nerve growth factor: SSTHPVFHMGEFSVCDSVSVWVGDKTTATDIKGKEVTVLAEVNINNSVFRQYFFETKCRASNPVESGCRGIDSKHWNSYCTTTHTFVKALTTDEKQAAWRFIRIDTACVCVLSRKATRRG
modifications: Beta-nerve growth factor
B5: NT-3: neurotrophic molecule of the NGF-BDNF gene family, produced by transfected Cos-cells (protein, UniProt P20783 139-257, looked up)
Neurotrophin-3: YAEHKSHRGEYSVCDSESLWVTDKSSAIDIRGHQVTVLGEIKTGNSPVKQYFYETRCKEARPVKNGCRGIDDKHWNSQCKTSQTYVRALTSENNKLVGWRWIRIDTSCVCALSRKIGRT
B6: IL-6: IL-6 (mouse, rec.) (protein, UniProt P08505 25-211, looked up)
Interleukin-6: FPTSQVRRGDFTEDTTPNRPVYTTSQVGGLITHVLWEIVEMRKELCNGNSDCMNNDDALAENNLKLPEIQRNDGCYQTGYNQEICLLKISSGLLEYHSYLEYMKNNLKDNKKDKARVLQRDTETLIHIFNQEVKDLHKIVLPTPISNALLTDKLESQKEWLRTKTIQFILKSLEEFLKVTLRSTRQT
B7: IFNc: IFNc (rat, rec.) (protein, UniProt P01581 23-156, looked up)
Interferon gamma: QGTLIESLESLKNYFNSSSMDAMEGKSLLLDIWRNWQKDGNTKILESQIISFYLRLFEVLKDNQAISNNISVIESHLITNFFSNSKAKKDAFMSIAKFEVNNPQIQHKAVNELIRVIHQLSPESSLRKRKRSRC

Key:
[1] = tested on: E8 chick ciliary ganglion neurons; experiment: Survival of dissociated E8 chick ciliary ganglion neurons; assay type: cell-based
Text: Ciliary neurotrophic factor activity may be evaluated using any CNTF-sensitive in vivo or in vitro system known in the art. For example, and not by way of limitation, in vitro systems have been developed which measure CNTF activity by quantitating 24-hour survival of embryonic (E8) chick ciliary ganglion (CG) neurons in monolayer cultures.
For example, ciliary ganglia may be collected from E8 chick embryos, dissociated (yielding approximately 20,000 cells per ganglion) and then diluted in HEBM medium containing 20 percent horse serum as described in Varon et al. (1979, Brain Res. 173:29-45). About fifty microliters of cell suspension containing neurons (2,000 cells) may then be seeded into microliter dishes and putative CNTF activity may be added. Culture plates may then be maintained at 37° C. in 5% CO2 for 24 hours, after which the cultures may be fixed by the addition of 200 μl 2 per cent glutaraldehyde in HEBM medium, and the number of surviving neurons may be determined visually by direct count under phase contrast microscopy.
Chick embryo ciliary ganglion cultures were created and maintained according to the method set forth in (Hughes et al., 1988, Nature 335 : 70-73).
(§1) Biological activity of recombinant CNTF was assayed on explants of chick embryo dorsal root ganglia (DRG) and dissociated cultures of ciliary ganglion (CG) neurons as described in Lindsay and Rohrer (1985, Devel. Biol 112:30-48). Briefly, DRG were dissected from chick embryos of 10 days incubation (E10) and 5-6 ganglia were explanted in 1 ml of a collagen gel matrix in 35 mm tissue culture dishes. After the gel had set, 1 ml of tissue culture growth medium F14 (Imperial Labs., U.K.) supplemented with 5% heat-inactivated horse serum (GIBCO) was added before adding human CNTF (1-20 l) to a final concentration of 100 pg to 100 ng/ml. CG were dissected from E8 chick embryos and incubated for 30 min in 0.25% trypsin (Worthington) in calcium- and magnesium-free phosphate buffered saline. The ganglia were then washed three times in F14 medium containing 5% horse serum before being dissociated to a single cell suspension by trituration through the bore of a Pasteur pipette. Enrichment for CG neurons was achieved by plating the cell suspension for 3.5 hr in a 60 mm dish, during which non-neuronal cells (fibroblasts and Schwann cells) attached firmly to the plastic while phase-bright neurons remained in suspension. The purified neurons were plated on polyornithine-laminin-coated 35 mm culture dishes at 8,000-10,000 neurons/dish. In explant cultures CNTF activity was determined by assessing the extent of fiber outgrowth in treated cultures compared to controls. Fiber outgrowth was scored on a scale of 0 to 5+, by comparing cultures to photographs of a dose-response of explanted DRG and NGF. In dissociated CG neuron cultures, CNTF activity was determined by counting at 48 hr the percentage of process-bearing neurons in control and CNTF-treated cultures. In all cases results were derived from triplicate cultures.

[2] = tested on: chick embryonic spinal motorneurons; experiment: Survival of chick embryonic spinal motorneurons in culture; assay type: cell-based; design: key to Survival: −: not significantly different from control (survival: 8.3 ± 3.8%, mean ± SD, n = 18); ±: about 15-20% (statistically significant from each blank control, p < 0.01); + +: about 35-55%; + ++: about 55-75%; settings: for Survival: after 3 days in culture, one concentration per molecule, Table VI, CNTF rat, rec.; for survival effect on motoneurons: supramaximal concentrations, NT-3 produced by transfected Cos-cells
Experimental: Motorneuron columns were dissected under a stereomicroscope from the lumbar part of the spinal cord of chick embryos on the 6th day of embryonic development and stored in cold calcium and magnesium-free Hanks balanced salt solution supplemented with glucose (4 g/l) (HBSS). The tissues were washed with HBSS and treated with 0.03% trypsin in HBSS at 37° C. for 20 min with gentle shaking, rinsed with cold HBSS and triturated mildly in 3 steps of 8-passage agitation in 1 ml of cold 0.1% soybean trypsin inhibitor (Sigma) in HBSS through a fire-polished siliconized Pasteur pipette. Each supernatant cell suspension was filtered through 50 μm-Nylon mesh, pooled and layered onto 4 ml of cold 6.8% metrizamide (Fluka) in HBSS-25 mM HEPES (pH7.4) in a 12 ml-siliconized conical glass tube. The tube was centrifuged at 400 g for 15 min at 4° C. and the intermediate layer (0.5 ml) was collected into another siliconized tube containing 6.5 ml of cold culture medium (a mixture of glucose (4 g/l)-supplemented Leibovitz's L-15 medium (Gibco), 0.15 M sodium bicarbonate, heat-inactivated and filtered horse serum and penicillin G (10^5 units/ml) at the ratio of 75:15:10:0.1, freshly prepared and buffered with 5% CO2.) After centrifugation at 100×g for 7 min at 4° C., the supernatant was removed and the cells were gently resuspended in culture medium and plated in Greiner 4-well culture dishes (well diameter, 10 mm; C. A. Greiner und Sohne GmbH, Nurtingen, West Germany) at 1000-2000 cells/well. The dishes had been precoated with poly-DL-ornithine (Sigma, 0.5 mg in 0.15 M sodium borate buffer (pH 8.3) overnight at 4° C., rinsed twice with phosphate-buffered saline (PBS) and subsequently coated with laminin (Gibco; 10 μg/ml in the serum-depleted culture medium) and placed in a 5% CO2-incubator until cell plating (5-6 hrs). Cells were incubated at 37° C. in a humidified 5% CO2- and 95% air-incubator. Samples were added one hr after plating and the culture medium changed after 24 hrs and 72 hrs. The initial cell numbers were counted 3 hrs after plating.
In some experiments motor neurons were retrogradely labeled with a fluorescent dye in vivo before cell preparation (U. Dohrman et al., 1986, Dev. Biol. 118:209-221) to identify the motor neuron cell population. A small hole was made in the shell of eggs which had been incubated for 5 days. Small pieces of rhodamine isothiocyanate crystals (Sigma) were inserted at two or three places into each hind limb thigh and the egg hole was sealed with a cellophane tape. The eggs were incubated for another 24 hrs. Some of the operated embryos were then processed for frozen sections after formaldehyde fixation. […] The other embryos were used for cell preparation using the method described above (18.1.1). After 5 hrs in culture cells were rinsed with warm HBSS, fixed with 4% formaldehyde in PBS at room temperature for 20 min, rinsed with PBS and then mounted in glycerol-PBS (1:1) with glass coverslips. Of the total cells approximately 83% were labeled and identified as motorneurons (FIG. 42.) Most of these labeled motorneurons were large cells and the rest were intermediate-size cells. No small cells were labeled. On the other hand, in experiments in which cells were not labeled with a fluorescent dye about 70% of the total cells were large phase-bright cells with round cell somas, about 20% were intermediate-size neurons (most of them may be motorneurons) and about 10% were small immature neurons (they have neuron-like processes with growth cones but have phase-dark semi-flat cell somas). Non-neuronal cells were either not present or accounted for less than 2%. Taken together, one may conclude that at least 83% of the cells are motorneurons while the remainder consists of non-labeled motorneurons, a small number of unidentified intermediate-size neurons and about 10% immature small neurons. […]

[3] = tested on: dorsal root ganglia and/or dissociated ciliary neurons; experiment: Biological activity of modified and truncated CNTF proteins (rapid bacterial extracts); assay type: cell-based, chick; settings: soluble protein extracted from induced bacteria hosting each plasmid; compared with full length parental protein
Experimental: Samples for gel electrophoresis were prepared by resuspending cell pellets from 0.5 ml culture OD590=2 in 0.16 ml lysis buffer (100 mM TrisHCl, 10% glycerol, 4% sodium dodecyl sulfate, 1 mM dithiothreitol, 0.5 mg/ml bromophenol blue, pH 6.8) and boiling for 5 minutes.
as §1
Biological activity was assayed on dorsal root ganglia and/or dissociated ciliary neurons was determined as described in section 12.1.6. Soluble protein was extracted from induced bacteria hosting each plasmid by the “rapid” protein extraction method described in section 12.1.3.

| Molecule | lowest concentration at which activity was detectable ([1]; dissociated, neuron-enriched E8 chick ciliary ganglion cultures) | EC50 ([1]; neuronal survival, E8 chick ciliary ganglion cultures) | Survival [2] | survival effect on motoneurons [2] | biological activity [3] |
| --- | --- | --- | --- | --- | --- |
| B1 | 5 pg/mL | 0.08 ng/mL |  |  |  |
| B2 |  |  | − | no discernable effect |  |
| B3 |  |  |  |  | as active as the full length protein |
| B4 |  |  | − | no discernable effect |  |
| B5 |  |  | − | did not appear to have a survival effect |  |
| B6 |  |  | − | no discernable effect |  |
| B7 |  |  | − | no discernable effect |  |
